{"source": "patent CN101724074A", "about": "(SUZHOU IND PARK CHENJIAN ANTIB, dated 2010)", "binders": {"B1": {"name": "抗ATP5B人鼠嵌合抗体c7A8 (antibody, human IgG1, kappa, V domains shown)", "VH": "EVQLLESGAELVKPGASVKLSCTASGFNIKDAYMYWVRQRPEQGLEWIGRIDPANDNTKYDPKFQGRATITADTSSNTAYLQLSSLTSEDTAVHYCARFYSVYAMDYWGQGTSVTVSS", "VL": "TQSPAIMSASPGEKVTITCSASSSVSYMHWFQQQPGTSPKLWVYTTSNLAFGVPARFSGSGPGTSYSLTISRMEAEDAATYYCQQRSSYPLTFGAGTKLELTR", "notes": "Chimeric IgG1/kappa: signal peptide and variable region of m7A8 joined to human IgG1 constant regions; tested as culture supernatant of transfected CHO-DG44 clone E1; also called 血管抑素受体β亚基人源化嵌合抗体; 人源化嵌合抗体"}}, "biological_target": "T1, 重组人ATP5B (rhATP5B) (human, UniProt P06576 48-529)", "T1 construct": "mature; Mr about 55 000; also called rhATP5B蛋白; rhATP5B抗原; not shown: His-tag and vector-derived residues of pET28a(+) (insert cloned SacI/HindIII)", "T1 sequence (P06576 48-529)": "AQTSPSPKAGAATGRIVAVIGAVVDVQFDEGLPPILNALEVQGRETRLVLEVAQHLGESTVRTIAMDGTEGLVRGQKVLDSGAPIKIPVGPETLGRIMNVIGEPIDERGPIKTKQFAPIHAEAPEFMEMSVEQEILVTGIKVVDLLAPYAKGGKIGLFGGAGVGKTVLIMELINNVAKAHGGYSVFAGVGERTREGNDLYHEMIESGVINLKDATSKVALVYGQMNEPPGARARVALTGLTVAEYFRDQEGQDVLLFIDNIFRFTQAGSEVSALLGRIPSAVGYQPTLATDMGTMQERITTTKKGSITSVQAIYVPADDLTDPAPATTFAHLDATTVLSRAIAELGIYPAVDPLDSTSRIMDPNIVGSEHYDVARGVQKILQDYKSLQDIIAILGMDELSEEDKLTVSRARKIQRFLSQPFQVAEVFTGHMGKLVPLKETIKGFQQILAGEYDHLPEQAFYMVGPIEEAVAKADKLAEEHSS", "test": "ELISA on culture supernatant of CHO-DG44 transfectants", "data": [{"binder": "B1", "values": [{"measurement": "binding result", "value": "binds"}]}]}
